Tested on: Escherichia coli TOP10
Test: shrunken log2 fold change of peptide-encoding DNA abundance (4.5 h post-induction vs induction); higher = less antimicrobial activity (less host growth inhibition)
Conditions: time post-induction: 4.5 h; library: site-saturation at positions 5, 18, 19, 20
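Also: peptides expressed intracellularly from a pBAD plasmid library in pooled LB shake-flask culture, induced with 0.3% L-arabinose, DNA abundance read by NGS, three biological replicates, DESeq2 with apeglm shrinkage.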

Row | Sequence | shrunken log2 fold change
1 | RRIRERPPRLPRPRPRPYPNPRP | -1.19
2 | RRIRNRPPRLPRPRPRPTFCPRP | -0.379
3 | RRIRLRPPRLPRPRPRPFRTPRP | -0.0778
4 | RRIRHRPPRLPRPRPRPDTFPRP | -1.19
5 | RRIRHRPPRLPRPRPRPKPIPRP | -0.0951
6 | RRIRQRPPRLPRPRPRPPTLPRP | -4.2e-05
7 | RRIRRRPPRLPRPRPRPDCNPRP | 0.311
8 | RRIRGRPPRLPRPRPRPNLDPRP | 0.265
9 | RRIRIRPPRLPRPRPRPSMMPRP | -0.886
10 | RRIRQRPPRLPRPRPRPEECPRP | -0.0135
11 | RRIRMRPPRLPRPRPRPSCCPRP | 0.291
12 | RRIRVRPPRLPRPRPRPSCRPRP | -0.0227
13 | RRIRIRPPRLPRPRPRPTSNPRP | -0.807
14 | RRIRERPPRLPRPRPRPNSAPRP | -0.503
15 | RRIRQRPPRLPRPRPRPELNPRP | 0.0915
16 | RRIRIRPPRLPRPRPRPHAVPRP | -0.12
17 | RRIRNRPPRLPRPRPRPRHVPRP | -0.119
18 | RRIRLRPPRLPRPRPRPYRVPRP | -0.00141
19 | RRIRARPPRLPRPRPRPMKYPRP | -0.157
20 | RRIRTRPPRLPRPRPRPDAEPRP | 0.117
21 | RRIRIRPPRLPRPRPRPDCEPRP | -0.0193
22 | RRIRMRPPRLPRPRPRPYCPPRP | -0.066
23 | RRIRWRPPRLPRPRPRPRKNPRP | 0.0168
24 | RRIRHRPPRLPRPRPRPMWDPRP | -0.0134
25 | RRIRKRPPRLPRPRPRPEANPRP | 0.0281

Row | Sequence | shrunken log2 fold change
26 | RRIRNRPPRLPRPRPRPRSQPRP | -0.0986
27 | RRIRGRPPRLPRPRPRPRGGPRP | 1.05
28 | RRIRCRPPRLPRPRPRPSLWPRP | -0.0313
29 | RRIRVRPPRLPRPRPRPQDSPRP | -0.069
30 | RRIRERPPRLPRPRPRPNMHPRP | -0.619
31 | RRIRHRPPRLPRPRPRPDIKPRP | -0.559
32 | RRIRPRPPRLPRPRPRPFTYPRP | -0.0519
33 | RRIRVRPPRLPRPRPRPCRTPRP | -1.03
34 | RRIRVRPPRLPRPRPRPIQFPRP | -0.0307
35 | RRIRARPPRLPRPRPRPPCIPRP | -0.111
36 | RRIRTRPPRLPRPRPRPHGWPRP | -0.0327
37 | RRIRVRPPRLPRPRPRPERRPRP | 0.13
38 | RRIRYRPPRLPRPRPRPGGYPRP | -0.00146
39 | RRIRGRPPRLPRPRPRPDQWPRP | 0.665
40 | RRIRVRPPRLPRPRPRPDLQPRP | 0.00798
41 | RRIRTRPPRLPRPRPRPNQNPRP | -0.168
42 | RRIRARPPRLPRPRPRPCDPPRP | -0.106
43 | RRIRWRPPRLPRPRPRPAACPRP | 0.0948
44 | RRIRNRPPRLPRPRPRPEPKPRP | 0.0124
45 | RRIRNRPPRLPRPRPRPNAYPRP | -0.0738
46 | RRIRARPPRLPRPRPRPVKLPRP | -0.59
47 | RRIRQRPPRLPRPRPRPGKMPRP | 0.0812
48 | RRIRMRPPRLPRPRPRPWLEPRP | -0.00871
49 | RRIRMRPPRLPRPRPRPVENPRP | -0.0952
50 | RRIRHRPPRLPRPRPRPPPAPRP | 1.07

Row | Sequence | shrunken log2 fold change
51 | RRIRTRPPRLPRPRPRPYIHPRP | -0.779
52 | RRIRLRPPRLPRPRPRPNCKPRP | -0.143
53 | RRIRHRPPRLPRPRPRPKDRPRP | 0.00902
54 | RRIRTRPPRLPRPRPRPDFQPRP | 0.00444
55 | RRIRMRPPRLPRPRPRPTVEPRP | 3.68
56 | RRIRERPPRLPRPRPRPWRFPRP | -0.117
57 | RRIRARPPRLPRPRPRPVLIPRP | -0.179
58 | RRIRDRPPRLPRPRPRPMDQPRP | 0.326
59 | RRIRMRPPRLPRPRPRPIDKPRP | -0.197
60 | RRIRCRPPRLPRPRPRPNTEPRP | -0.161
61 | RRIRVRPPRLPRPRPRPWYWPRP | -0.332
62 | RRIRPRPPRLPRPRPRPCKHPRP | -0.131
63 | RRIRMRPPRLPRPRPRPWTNPRP | -0.01
64 | RRIRNRPPRLPRPRPRPCWYPRP | -0.0865
65 | RRIRIRPPRLPRPRPRPDEKPRP | -0.0762
66 | RRIRRRPPRLPRPRPRPYKDPRP | -0.249
67 | RRIRMRPPRLPRPRPRPCCEPRP | 0.192
68 | RRIRRRPPRLPRPRPRPWETPRP | 0.00928
69 | RRIRWRPPRLPRPRPRPEFVPRP | 0.423
70 | RRIRTRPPRLPRPRPRPANGPRP | -0.213
71 | RRIRPRPPRLPRPRPRPEQNPRP | -0.199
72 | RRIRLRPPRLPRPRPRPYVIPRP | -0.662
73 | RRIRYRPPRLPRPRPRPTEKPRP | -0.0336
74 | RRIRRRPPRLPRPRPRPQETPRP | 0.00135
75 | RRIRSRPPRLPRPRPRPFTSPRP | 0.0532

Row | Sequence | shrunken log2 fold change
76 | RRIRYRPPRLPRPRPRPAQRPRP | -0.0772
77 | RRIRVRPPRLPRPRPRPDFKPRP | 0.0385
78 | RRIRERPPRLPRPRPRPFHIPRP | -0.133
79 | RRIRRRPPRLPRPRPRPRAMPRP | 0.145
80 | RRIRNRPPRLPRPRPRPNIDPRP | -0.936
81 | RRIRGRPPRLPRPRPRPMQIPRP | 0.406
82 | RRIRHRPPRLPRPRPRPGSWPRP | 0.112
83 | RRIRNRPPRLPRPRPRPHDLPRP | 0.0667
84 | RRIRWRPPRLPRPRPRPWAMPRP | 0.0321
85 | RRIRTRPPRLPRPRPRPCSAPRP | -0.413
86 | RRIRQRPPRLPRPRPRPCCTPRP | -0.137
87 | RRIRIRPPRLPRPRPRPVWMPRP | 0.11
88 | RRIRVRPPRLPRPRPRPEELPRP | -0.0522
89 | RRIRLRPPRLPRPRPRPFHHPRP | -0.147
90 | RRIRYRPPRLPRPRPRPDPHPRP | -0.356
91 | RRIRPRPPRLPRPRPRPTDHPRP | -0.114
92 | RRIRGRPPRLPRPRPRPIFAPRP | 0.609
93 | RRIRLRPPRLPRPRPRPKFNPRP | -0.437
94 | RRIRARPPRLPRPRPRPDRDPRP | -0.0499
95 | RRIRQRPPRLPRPRPRPPYGPRP | -0.408
96 | RRIRCRPPRLPRPRPRPIAIPRP | -0.443
97 | RRIRSRPPRLPRPRPRPFTWPRP | -0.24
98 | RRIRRRPPRLPRPRPRPFTWPRP | -0.126
99 | RRIRFRPPRLPRPRPRPDKYPRP | -1.65
100 | RRIRERPPRLPRPRPRPCSLPRP | -0.264

Row | Sequence | shrunken log2 fold change
101 | RRIRGRPPRLPRPRPRPQIKPRP | 0.324
102 | RRIRPRPPRLPRPRPRPCQQPRP | -0.119
103 | RRIRYRPPRLPRPRPRPGVCPRP | -0.0493
104 | RRIRFRPPRLPRPRPRPMLAPRP | 0.0819
105 | RRIRSRPPRLPRPRPRPGNWPRP | -0.0906
106 | RRIRSRPPRLPRPRPRPELMPRP | 0.469
107 | RRIRSRPPRLPRPRPRPMQGPRP | -0.181
108 | RRIRVRPPRLPRPRPRPITHPRP | -0.171
109 | RRIRVRPPRLPRPRPRPVMAPRP | 0.0266
110 | RRIRCRPPRLPRPRPRPEITPRP | 0.0771
111 | RRIRQRPPRLPRPRPRPDHTPRP | -0.0589
112 | RRIRCRPPRLPRPRPRPTAGPRP | 0.411
113 | RRIRVRPPRLPRPRPRPPQNPRP | 0.188
114 | RRIRYRPPRLPRPRPRPLLAPRP | -0.197
115 | RRIRLRPPRLPRPRPRPQRKPRP | 0.198
116 | RRIRWRPPRLPRPRPRPSCKPRP | -0.183
117 | RRIRSRPPRLPRPRPRPSGIPRP | -0.169
118 | RRIRTRPPRLPRPRPRPWAPPRP | 0.154
119 | RRIRIRPPRLPRPRPRPIYCPRP | -0.0326
120 | RRIRARPPRLPRPRPRPCLGPRP | 0.0637
121 | RRIRSRPPRLPRPRPRPQREPRP | -0.019
122 | RRIRVRPPRLPRPRPRPFMLPRP | -0.279
123 | RRIRHRPPRLPRPRPRPVCAPRP | 0.208
124 | RRIRGRPPRLPRPRPRPADIPRP | -0.229
125 | RRIRARPPRLPRPRPRPKRFPRP | 0.249
